Laboratory results: US20260258115A1

How the values were obtained:
[1] = molecular target: Respiratory Syncytial Virus fusion glycoprotein (RSV F) on RSV-A2 virus (Respiratory Syncytial Virus subtype A (RSV-A2)); experiment: cell-based or functional assay
[2] = molecular target: RSV prefusion F (preF), DS-Cav1 (Respiratory Syncytial Virus); experiment: BLI, IgG on anti-human IgG sensor, 100 nM antigen

B1: ADI-36671 (antibody, V domains shown)
VH: EVQLLESGGGLVKPGGSLRLSCAASGFTFSGYYMTWIRQAPEKGLEWVSYISGGSTYTNYADSVRGRFTISRDNARNSLYLQMNSLRAEDTAVYYCARDGGYGIGPLYWGQGSLVTVSS
VL: QPVLTQPPSVSGAPGQRVTISCTGSSSNIGAPFDVHWYQQLPGTAPKPLIYGNSNRPSGVPDRFSGSKSGTSASLAITGLQAEDEADYYCQSYDSSLGGYVFGTGTKLTVL
Neutralization IC50 (RSV subtype A) [1]: 0.01 µg/mL | Kd [2]: 0.728 nM

B2: ADI-36679 (antibody, V domains shown)
VH: QVQLVQSGAEVKKPGESLKISCKGSGYSFRSYWIAWVRQMPGKGLEWMGTIFPGDSDVTYSPSFQGQVTISVDKSTSTAYLQWGSLKASDTAIYYCARRYDYIDFWGQGTLVTVSS
VL: DIQMTQSPSSLSASVGDRVTITCQASQDIINHLNWYQQKPGKAPKLLIYDASNLHPGVPSRFSGSGSGTYFTFTISSLQPDDFATYYCQQYDFLAHITFGPGTKVDIK
Neutralization IC50 (RSV subtype A) [1]: 0.01 µg/mL | Kd [2]: 0.878 nM

B3: ADI-36680 (antibody, V domains shown)
VH: QVTLKESGAELRKPGESLKISCKASGYRFTNYWIGWVRQMPGKGLEWMGVIYPGDSDTKYSPSFQGQVTMSADKSINTAYLQWSSLKASDTAIYYCVSLFGDYDYGALDYWGQGTLVTVSS
VL: ETTLTQSPATLSMSPGERATLSCRASQSVGRNLAWYQQKPGQAPRLLIYGASIRATGILARFSGSGSGTEYTLTISSLQPEDFAVYYCQQYHDWPSFTFGPGTKVDIK
Neutralization IC50 (RSV subtype A) [1]: 0.01 µg/mL | Kd [2]: 0.719 nM

B4: ADI-36681 (antibody, V domains shown)
VH: EVQLVESGAEVKKPGESLKISCKASGYSFTRYWIGWVRQMPGKGLEWMGIIFPGDSDTRYCPSFEGQVTISADRSINTAYLQWSSLKASDSAMYYCVTLYTDYDYGAPDHWGQGTLVTVSS
VL: DIVLTQSPATLSVSPGERATLSCRASQSLSGDLAWYQQKPGQAPRLLIYATSTRATGIPARFSGSGSGAEFTLTISSLQSEDFAVYYCQQYYDWPLLTFGPGTKVEIK
Neutralization IC50 (RSV subtype A) [1]: 0.01 µg/mL | Kd [2]: 1.2 nM

B5: ADI-41147 (antibody, V domains shown)
VH: EVQLVESGGGLVKPGGSLRLSCAASGFTLSGYYMSWVRQAPGKGLEWISYISGGSTYTNYADSVNGRFTISRDNAKNSLYLQMDSLRAEDTAVYYCARLEYGDYGPYYLGLWGRGTLVTVSS
VL: QSVLTQPPSVSGAPGQRVTISCTGTSSNIGAGYDVHWYQKLPGTAPKLLIYANNNRPSGVPDRFSGSKSGTSASLAITGLQAEDEADYYCQSYDTSLSAHYVFGTGTKLTVL
Neutralization IC50 (RSV subtype A) [1]: 0.06 µg/mL | Kd [2]: 0.467 nM

B6: ADI-41157 (antibody, V domains shown)
VH: EVQLVESGPGLVKPSETLSLTCTVSGGSISTYYWSWIRQPPGKGLEWIGYIYYTGSTNYNPSLKSRVTISLDTSKNQFSLKLSSVSAADTAFYYCARSPPVPGTRSWFDPWGQGTLVTVSS
VL: SPGLTQPQSAFGTPGQRVTISCFGSSSNIGRNHIYWYQQVPGTAPKLLIYRNNQRPSGVPDRFFGSKFGTSASLAISGVRSEDEADYFCAAWDDSLSGPVFGGGTKLTVL
Neutralization IC50 (RSV subtype A) [1]: 0.22 µg/mL | Kd [2]: 0.507 nM

B7: ADI-41165 (antibody, V domains shown)
VH: EVQLVETGAEVKKPGESLKISCKGSGYSFTSYWIGWVRQMPGKGLEWMGIIYPGDSDTRYSPSFQGQVTISADKSISTAYLQWSSLKASDTAMYYCARRYDYIDIWGQGTMVTVSS
VL: DIRVTQSPSSLSASVGDRVTITCQASQDISNYLNWYQQKPGKAPKLLIYDASNLETGVPSRFSGSGSGTDFTFTISSLQPEDIATYYCQQYDNLAHITFGPGTKVEIK
Neutralization IC50 (RSV subtype A) [1]: > 25 µg/mL | Kd [2]: 2.4 nM

B8: ADI-41168 (antibody, V domains shown)
VH: EVQLVETGGGVVQPGRSLRLSCAASGFTFSSYGMHWVRQAPGKGLEWVAVISYDGSNKYYADSVKGRFTISRDNSKNTLYLQMNSLRTEDTAVYYCAKGGGYYYYYMDVWGKGTTVTVSS
VL: QPVLTQPASVSGSPGQSITISCTGTSSDVGGYNYVSWYQQHPGKAPKLMIYGVNNRPSGVSNRFSGSKSGNTASLTISGLQGEDEADYYCNSYRSGITVVFGGGTKLTVL
Neutralization IC50 (RSV subtype A) [1]: > 25 µg/mL | Kd [2]: 133 nM

B9: ADI-41180 (antibody, V domains shown)
VH: EVQLVQSGGGLVKPGGSLRLSCAASGFTFIDYYMSWIRQAPGKGLEWVSSISGGSTYTTYADSVKGRFTISRDNGKNSLYLQMDSLRAEDTAVYYCARLGGYSYYMDVWGKGTTVTVSS
VL: QPVLTQPPSVSGAPGQRVTISCTGSSSNIGAGYDVHWYQHLPGAAPKLLIYDNTNRPSGIPDRFSGSKSGTSASLAITGLQAEDEADYYCQSYDSSLDWVFGGGTKVTVL
Neutralization IC50 (RSV subtype A) [1]: 0.07 µg/mL | Kd [2]: 0.47 nM

B10: ADI-41188 (antibody, V domains shown)
VH: QVQLQQWGAGLLKSSETLSLTCAVYGGSFSGYYWSWIRQSPGKGLEWIGEINHSGSANYNPSLKNRVTISRDTSKNQFSLWLSSVTAADTAVYYCARTSRSPEPDNYYYYMDVWGRGTTVTVSS
VL: QSVLTQPPSVSGAPGQRVSISCTGSSSDIGAGYDVHWYQQFPGTAPKLLMYANNNRPSGVPDRFSGSRSGTSASLAITGLQAEDEADYYCQSYDSNLDVVVFGGGTKLTVL
Neutralization IC50 (RSV subtype A) [1]: 0.15 µg/mL | Kd [2]: 0.224 nM

B11: ADI-41193 (antibody, V domains shown)
VH: EVQLVESGGGLVKPGMSLRLSCAASGFRFSDHYMNWIRQAPGKGLEWVSYISSSSTYTDYTDSVKGRFTISRDNSKNSVYLQMNSLRAEDTAIYYCARVAPIRHNGDYIDYWGQGTTVTVSS
VL: NFMLTQPPSASGTPGQRVTISCTGSSSNIGAGYDVHZYQQIPGTAPKLLIYGNNNRPSGVPDRFSGSKSGTSASLAITGLQTEDEADYYCQSYDRGLSGRVFGTGTKVTVL
Neutralization IC50 (RSV subtype A) [1]: 0.07 µg/mL | Kd [2]: 0.74 nM

B12: ADI-41198 (antibody, V domains shown)
VH: EVQLVQSGGVVIQPGGSLRLSCAASGFSFDEYLMHWVRQLPGKGLEWVALISWHGDITYYADSVKGRFTISRDNSRYSLYLQMNSLRSDDTALYYCVKDGWIEGAFNHTFGIGYYFENWGQGTLVTVSS
VL: DIVLTQTPSSLSASVGDRVTITCQASQDINNCLNWYQQKPGKAPEVLIFDASNLETGVPLRFSGSGSGTHFTLTISSLQPEDIATYYCQQHENVPLTFGGGTKVEIK
Neutralization IC50 (RSV subtype A) [1]: 0.32 µg/mL | Kd [2]: 0.756 nM

B13: ADI-41199 (antibody, V domains shown)
VH: QVQLVESGGGLVKPGGSLRLSCGASGFTFPDYYMSWIRQAPGKGLEWLSYISSSSSFTDYADSVKGRFTISRDNAKKSLYLQMNSLRAEDTAVYYCARVRADYVGNSRIHFDYWGQGTLVTVSS
VL: DIVMTQSPVTLSVSPGERATLSCRASQSLNGYLAWYQQKPGQAPRLLIYGASTRATEPGWDTSGRGSGTEFTLTISSLQSEDFAVYYCQQYNDWPFTFGQGTRLEIK
Neutralization IC50 (RSV subtype A) [1]: 0.23 µg/mL | Kd [2]: 1.73 nM

B14: ADI-41204 (antibody, V domains shown)
VH: EVQLLESGGGLVKPGGSLRLSCAASGFTFSSYSMNWVRQAPGKGLEWVSSISAGSSYIYYADSVKGRFTISRDNAKNSLYLQMNSLRAEDTAVYYCARVPSYETTPYFDYWGQGTLVTVSS
VL: QSVLTQPPSVSGAPGQRVTISCTGSSSNIGSGYDLHWYQQLPGTAPKLLIYVNSNRPSGVPDRFSGSKSGTSASLAITGLQAEDEADYYCQSYDSSLSGYVFGTGTKVTVL
Neutralization IC50 (RSV subtype A) [1]: 0.06 µg/mL | Kd [2]: 0.545 nM

B15: ADI-41206 (antibody, V domains shown)
VH: EVQLLESGGGLVKPGGSLRLSCAGSGFSFSSYSMNWVRQAPEKGLEWVSSISASSSFINYADSVKGRFIISRDNAKNSLFLQMDSLRAEDTAVYYCARDGVHPGGYIFGGYIDSWGQGTLVTVSS
VL: QSVLTQPPSVSGAPGQRVTISCTGSSSNIGAGYDVHWFRQLPGTAPKLLIYGNNNRPSGVPDRFSGSKSGSSASLIITGLQAQDEATYYCQSYDSSLSGYVFGTGTKLTVL
Neutralization IC50 (RSV subtype A) [1]: 0.07 µg/mL | Kd [2]: 0.409 nM

B16: ADI-41210 (antibody, V domains shown)
VH: QVQLVQSGAEVKKPGASVKVSCKASGYTFNNYGISWVRQAPGQGLEWMGWISAYNGDIKYAQKFQGRVTVTTDTSTSTAYMELRSLRSDDTAVYYCARDTPVGGGTQTFDYWGQGTLVTVSS
VL: ETTLTQSPLSLPVTLGQPASISCRSSQSLVHSNGNTYLNWFQQRPGQSPRRLIYTVSNRDSGVPDRFSGSGSGTDFTLKISRVEAEDVGVYYCMQATHRPGTFGQGTKVEIK
Neutralization IC50 (RSV subtype A) [1]: 0.1 µg/mL | Kd [2]: 0.47 nM

B17: ADI-41216 (antibody, V domains shown)
VH: EVQLVESGGGLVKPGESLRLSCAASGFRFSDHYMSWIRQAPGKGLEWISYISSSSSYIHYADSVTGRFTISRDNAKNSMYLQMNSLRAEDTAVYYCAREIGRSYYMDVWGKGTTVTVSS
VL: QSALIQPPSVSGAPGQRVTISCTGSSSNIGAGYDVHWYQQLPGTAPKLLIYGNNNRPSGVPDRFSASKSGISASLAITGVQTEDEADYYCQSYDRSLSEFYVFGSGTKVTVL
Neutralization IC50 (RSV subtype A) [1]: 0.19 µg/mL | Kd [2]: 0.903 nM

B18: ADI-41217 (antibody, V domains shown)
VH: EVQLVQSGGGLVKPGGSLRLSCVASGFTFSSYSMNWVRQAPGKGLEWVSSISASSSYIDYADSVKGRFTISRDNDKKSLYLQMSSLRAEDTAVYYCAREDYDSLTGYYSPKRFDPWGQGTLVTVSS
VL: QSVLTQPPSLSGAPGQRVTISCTGSSSNIGAGYDVHWYQQLPGTAPKLLIYGNNNRPSGVPDRFSGSKSGTSASLAITGLQAEDEADYYCQSYDRSLSVVFGGGTKVTVL
Neutralization IC50 (RSV subtype A) [1]: 0.04 µg/mL | Kd [2]: 0.489 nM

B19: ADI-41226 (antibody, V domains shown)
VH: EVQLVESGGGLVKPGGSLRLSCAASRFTFAGYYMSWIRQAPGKGLEWVSDISPSSTYTNYADSVKGRFTISRDNAGTSVSLQMDSLRADDTAVYYCARITPYGGSHYFDSWGQGTLVTVSS
VL: QPVLTQPPSVSGAPGQRVTISCTGSSSNIGAGYDLHWYQQLPGTAPKLLIYGNSNRPSGVPDRFSGSKSGTSASLAITGLQAEDEADYYCQSYDNSLSGFYVFGTGTKVTVL
Neutralization IC50 (RSV subtype A) [1]: 0.15 µg/mL | Kd [2]: 0.82 nM

B20: ADI-41227 (antibody, V domains shown)
VH: RSSWCSVGAEVKKRGSSVKVSCKASGGTFGGYAVSWVRQAPGQGLEWMGGIIPMFYTTKYAQKLQGRVTITADESTNTAYMDLSSLTSDDTAIYFCAREWHLGRTAVTGTGAFLDAFDIWGQGTMVTVSS
VL: SYELTQPPSVSEAPRQRVTISCSGSSSNIGNNAVNWYQQLPGKAPKLLIYYDDLLPSGVSDRFSGSKSGTSASLAISGLQSEDEADYYCSAWDDSLNGWVFGGGTKLTVL
Neutralization IC50 (RSV subtype A) [1]: > 25 µg/mL | Kd [2]: 4.62 nM
